In patent publication US20140018288A1, “X-DING-CD4 Peptide” (priority 2012, published 2014):
Like-named read-outs stand apart in the source and are kept apart here.

Tested on: HIV-1 LTR promoter
Experiment: Rapid Suppression Assay (RSA), PMA-induced HIV-1 LTR-driven luciferase in 1G5 cells
Format: cell-based
Conditions: RSA; for IC50: PMA 5 ng/ml, read-out: IC50, HIV-1 LTR promoter inhibition
Description: We applied the cell based Rapid Suppression Assay (RSA) for testing X-DING-CD4-induced inhibition of HIV-1 LTR promoter (Lesner et al., 2004; Lesner et al., 2005). Briefly, 1 G5 cells (obtained through the NIH AIDS Research and Reagent Program, Division of AIDS, NIAID, NIH) that are stably transfected with an inducible luciferase gene driven by HIV-1 LTR (Aguilar-Cordova et al., 1994) were washed in PBS, resuspended in hybridoma medium to concentration of 5×10^6cells/ml. For purpose of generating control titration curves, 100 μl aliquots of 1G5 cells were mixed with 100 μl cell culture medium either supplemented with various amount of rX-DING-CD4^pep (SEQ ID No: 1) or no rX-DING-CD4^pep, and incubated for three hours at 37° C. Subsequently, all cells were induced with phorbol 12-myristate 13-acetate (PMA) at a concentration of 5 ng/ml. Two control tubes containing 1G5 cells without rX-DING-CD4^pep treatment were resuspended in hybridoma medium with or without PMA. Three hours later cells were collected by centrifugation and lysed in the same tubes using Reporter Lysis buffer (Promega). The expression levels of luciferase protein in the lysates were determined according to the manufacturer's protocol. The X-DING-CD4^pep inhibition values were established based on the formula: [(LUC1-LUC0)×100/Z]−100; where LUC1 is the value obtained from cells induced by PMA and treated with a specific dilution of X-DING-CD4^pep; and LUC0 is the basal value obtained from the uninduced and untreated cells; Z is the absolute luciferase induction by PMA calculated as Z=LUCmax-LUCO3 where LUCmax is the value of 100% luciferase expression in PMA induced X-DING-CD4^pep untreated cells.
One aspect of the present invention is related to X-DING-CD4 peptide derivatives. Here we obtained 15 derivatives SED ID NOS: 1-15 by recombination or in vitro synthesis. We tested the biological activity of some these derivatives by rapid suppression assay (RSA). In XD-4M, the third amino acid glycine in the native X-DING-CD4 peptide was substituted with the polar amino acid glutamine. In XD-7, the two amino acids, cysteine and valine, replaced the three amino acids, glycine, serine and aspartic acid, in the native X-DING-CD4 peptide. In XD-12 and XD-12sh, the 69th amino acid glutamic acid in the native X-DING-CD4 peptide was methylated. In XD-9, the 69th amino acid glutamic acid in the native X-DING-CD4 peptide was substituted with the amino acid glutamine. The RSA procedure was similar to that described in Example 2. The inhibitory values are plotted in FIG. 5.
We performed the rapid suppression assay (RSA) which tests directly the inhibition of HIV-1 transcription (similar to the procedure described in Example 2), the MAGI assay which tests the inhibition of HIV-1 replication in a single cycle infection (similar to the procedure described in Example 2), and the HIV-1 infection inhibition assay in human PBLs.

[1] = 1G5 cells, listed as rX-DING-CD4

B1: MADINGGGATLPQPLYQTSGVLTAGFAPYIGVGSGKGKLAFLNNDYSQFGTGTKNVHWAGSDSKLTSTELSTYASTKQAAWGKLIQVPSVATSVAIPFNKAGSNAVDLSVDQLCGVFSGRITTWNQ (protein, listed as Homo sapiens)
chain: MADINGGGATLPQPLYQTSGVLTAGFAPYIGVGSGKGKLAFLNNDYSQFGTGTKNVHWAGSDSKLTSTELSTYASTKQAAWGKLIQVPSVATSVAIPFNKAGSNAVDLSVDQLCGVFSGRITTWNQ
- concentration achieving inhibition of 90% HIV-1 LTR transcription: 115.1 nM
- IC95, HIV-1 LTR promoter inhibition, mass concentration (1G5 cells): 1.52 µg/mL
- IC95, inhibitory dose blocking 95% transcription events (1G5 cells): about 115.1 nM
- IC50 [1]: 8.2 nM
- IC50 (1G5 cells): ~8.18 nM
- IC95, HIV-1 LTR promoter inhibition, mass concentration [1]: (1.514 μg/ml)
- IC50, HIV-1 LTR promoter inhibition, mass concentration (Table 1): (0.107 ug/ml)
- IC95, HIV-1 LTR promoter inhibition (Table 1): 116 nM
